Measurements: the supplement of paper PMC9112550, “Optimization of the antimicrobial peptide Bac7 by deep mutational scanning” (BMC Biology, 2022)

system: Escherichia coli TOP10; test: shrunken log2 fold change of peptide-encoding DNA abundance (4.5 h post-induction vs induction); higher = less antimicrobial activity (less host growth inhibition); conditions: time post-induction: 4.5 h; library: site-saturation at positions 5, 18, 19, 20
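Also: peptides expressed intracellularly from a pBAD plasmid library in pooled LB shake-flask culture, induced with 0.3% L-arabinose, DNA abundance read by NGS, three biological replicates, DESeq2 with apeglm shrinkage.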

| Sequence | shrunken log2 fold change |
| --- | --- |
| RRIRHRPPRLPRPRPRPLWSPRP | -0.31 |
| RRIRGRPPRLPRPRPRPTGTPRP | 0.517 |
| RRIRLRPPRLPRPRPRPWASPRP | -0.0355 |
| RRIRQRPPRLPRPRPRPIHNPRP | -0.464 |
| RRIRRRPPRLPRPRPRPQNRPRP | 0.318 |
| RRIRARPPRLPRPRPRPQCSPRP | 0.111 |
| RRIRNRPPRLPRPRPRPHCCPRP | -0.215 |
| RRIRDRPPRLPRPRPRPVFRPRP | 0.18 |
| RRIRYRPPRLPRPRPRPPQDPRP | -0.362 |
| RRIRYRPPRLPRPRPRPLKDPRP | -0.00674 |
| RRIRARPPRLPRPRPRPECRPRP | 0.874 |
| RRIRVRPPRLPRPRPRPIYFPRP | -0.23 |
| RRIRFRPPRLPRPRPRPSTCPRP | -0.262 |
| RRIRCRPPRLPRPRPRPVYIPRP | -0.756 |
| RRIRFRPPRLPRPRPRPCCDPRP | -0.239 |
| RRIRNRPPRLPRPRPRPAPDPRP | 0.147 |
| RRIRQRPPRLPRPRPRPVLLPRP | -0.154 |
| RRIRMRPPRLPRPRPRPQQPPRP | 0.0363 |
| RRIRYRPPRLPRPRPRPTSYPRP | -0.0849 |
| RRIRPRPPRLPRPRPRPTGKPRP | 0.102 |
| RRIRKRPPRLPRPRPRPWWTPRP | 0.0991 |
| RRIRIRPPRLPRPRPRPWITPRP | -0.917 |
| RRIRSRPPRLPRPRPRPLGHPRP | -0.051 |
| RRIRVRPPRLPRPRPRPVKCPRP | -0.163 |
| RRIRVRPPRLPRPRPRPSMKPRP | -0.363 |

| Sequence | shrunken log2 fold change |
| --- | --- |
| RRIRHRPPRLPRPRPRPKHIPRP | -0.413 |
| RRIRFRPPRLPRPRPRPHTKPRP | -0.0159 |
| RRIRHRPPRLPRPRPRPPVIPRP | -0.251 |
| RRIRNRPPRLPRPRPRPDQGPRP | -0.257 |
| RRIRKRPPRLPRPRPRPDVYPRP | -0.0383 |
| RRIRERPPRLPRPRPRPYVRPRP | -0.00133 |
| RRIRVRPPRLPRPRPRPSVWPRP | 0.102 |
| RRIRVRPPRLPRPRPRPAADPRP | 0.437 |
| RRIRTRPPRLPRPRPRPYIPPRP | -0.462 |
| RRIRRRPPRLPRPRPRPRSVPRP | 0.234 |
| RRIRPRPPRLPRPRPRPSKHPRP | -0.441 |
| RRIRYRPPRLPRPRPRPILDPRP | -0.253 |
| RRIRRRPPRLPRPRPRPTDPPRP | 0.246 |
| RRIRVRPPRLPRPRPRPYMEPRP | -0.16 |
| RRIRWRPPRLPRPRPRPEYPPRP | 0.208 |
| RRIRPRPPRLPRPRPRPQHVPRP | 0.00743 |
| RRIRFRPPRLPRPRPRPSHHPRP | -0.534 |
| RRIRDRPPRLPRPRPRPRAEPRP | 0.552 |
| RRIRQRPPRLPRPRPRPCGCPRP | 0.164 |
| RRIRFRPPRLPRPRPRPVWTPRP | -0.488 |
| RRIRPRPPRLPRPRPRPQESPRP | -0.0337 |
| RRIRNRPPRLPRPRPRPSNCPRP | -0.801 |
| RRIRCRPPRLPRPRPRPTHNPRP | 0.124 |
| RRIRQRPPRLPRPRPRPLHTPRP | 0.0932 |
| RRIRRRPPRLPRPRPRPSDAPRP | -0.0697 |

| Sequence | shrunken log2 fold change |
| --- | --- |
| RRIRRRPPRLPRPRPRPFIWPRP | 0.0601 |
| RRIRARPPRLPRPRPRPFYSPRP | -0.0849 |
| RRIRTRPPRLPRPRPRPVICPRP | -0.157 |
| RRIRRRPPRLPRPRPRPHDYPRP | -0.0628 |
| RRIRHRPPRLPRPRPRPMCRPRP | -0.0487 |
| RRIRWRPPRLPRPRPRPRFIPRP | -0.00733 |
| RRIRWRPPRLPRPRPRPYYSPRP | -0.181 |
| RRIRNRPPRLPRPRPRPAHDPRP | 0.055 |
| RRIRYRPPRLPRPRPRPNIFPRP | -0.42 |
| RRIRGRPPRLPRPRPRPGMHPRP | 0.589 |
| RRIRNRPPRLPRPRPRPVTKPRP | 0.0334 |
| RRIRDRPPRLPRPRPRPPDFPRP | 0.0426 |
| RRIRRRPPRLPRPRPRPRGGPRP | 0.509 |
| RRIRIRPPRLPRPRPRPQKQPRP | -0.128 |
| RRIRNRPPRLPRPRPRPYEDPRP | -0.173 |
| RRIRKRPPRLPRPRPRPDRPPRP | 0.0953 |
| RRIRNRPPRLPRPRPRPEAPPRP | 3.17 |
| RRIRRRPPRLPRPRPRPPNTPRP | 0.884 |
| RRIRARPPRLPRPRPRPGQLPRP | 0.359 |
| RRIRSRPPRLPRPRPRPRSPPRP | 0.363 |
| RRIRRRPPRLPRPRPRPFVFPRP | 0.274 |
| RRIRDRPPRLPRPRPRPWLVPRP | -0.117 |
| RRIRMRPPRLPRPRPRPSLCPRP | 0.694 |
| RRIRYRPPRLPRPRPRPIKHPRP | -0.693 |
| RRIRQRPPRLPRPRPRPARQPRP | 0.182 |

| Sequence | shrunken log2 fold change |
| --- | --- |
| RRIRLRPPRLPRPRPRPSLVPRP | -0.0388 |
| RRIRQRPPRLPRPRPRPGDTPRP | -0.223 |
| RRIRRRPPRLPRPRPRPDAWPRP | 0.325 |
| RRIRSRPPRLPRPRPRPDTAPRP | -0.0215 |
| RRIRGRPPRLPRPRPRPTMQPRP | 0.907 |
| RRIRMRPPRLPRPRPRPGMHPRP | 0.186 |
| RRIRERPPRLPRPRPRPVVWPRP | 0.33 |
| RRIRGRPPRLPRPRPRPDRLPRP | -0.00118 |
| RRIRARPPRLPRPRPRPAMFPRP | -0.0337 |
| RRIRVRPPRLPRPRPRPMRFPRP | 0.48 |
| RRIRFRPPRLPRPRPRPEEVPRP | 0.0815 |
| RRIRLRPPRLPRPRPRPNRYPRP | 0.0611 |
| RRIRDRPPRLPRPRPRPHKRPRP | -0.0521 |
| RRIRLRPPRLPRPRPRPDASPRP | 0.101 |
| RRIRHRPPRLPRPRPRPPLCPRP | 0.0792 |
| RRIRLRPPRLPRPRPRPAFTPRP | 0.238 |
| RRIRVRPPRLPRPRPRPKDTPRP | -0.038 |
| RRIRSRPPRLPRPRPRPAFPPRP | 0.278 |
| RRIRRRPPRLPRPRPRPEMTPRP | 0.638 |
| RRIRSRPPRLPRPRPRPYKRPRP | -0.618 |
| RRIRQRPPRLPRPRPRPTQSPRP | 0.375 |
| RRIRWRPPRLPRPRPRPTYMPRP | -0.0572 |
| RRIRTRPPRLPRPRPRPVTWPRP | -0.0681 |
| RRIRRRPPRLPRPRPRPGLQPRP | -0.0644 |
| RRIRGRPPRLPRPRPRPLWLPRP | 0.574 |

| Sequence | shrunken log2 fold change |
| --- | --- |
| RRIRFRPPRLPRPRPRPDDRPRP | 0.00835 |
| RRIRKRPPRLPRPRPRPMNSPRP | -0.0163 |
| RRIRVRPPRLPRPRPRPCWFPRP | -0.106 |
| RRIRNRPPRLPRPRPRPHMRPRP | -0.00174 |
| RRIRIRPPRLPRPRPRPIWFPRP | -0.164 |
| RRIRSRPPRLPRPRPRPMQQPRP | 0.178 |
| RRIRFRPPRLPRPRPRPECGPRP | 0.175 |
| RRIRSRPPRLPRPRPRPHNLPRP | -0.33 |
| RRIRQRPPRLPRPRPRPVIMPRP | -0.348 |
| RRIRPRPPRLPRPRPRPSEFPRP | -0.0966 |
| RRIRHRPPRLPRPRPRPQQMPRP | 0.00835 |
| RRIRARPPRLPRPRPRPGSCPRP | 0.32 |
| RRIRERPPRLPRPRPRPCCSPRP | -0.52 |
| RRIRERPPRLPRPRPRPTDYPRP | -0.349 |
| RRIRARPPRLPRPRPRPEEVPRP | 0.0554 |
| RRIRCRPPRLPRPRPRPDYWPRP | -0.437 |
| RRIRTRPPRLPRPRPRPWHLPRP | -0.0134 |
| RRIRRRPPRLPRPRPRPVSRPRP | -0.0137 |
| RRIRERPPRLPRPRPRPMPMPRP | -0.0464 |
| RRIRYRPPRLPRPRPRPSQDPRP | -0.561 |
| RRIRTRPPRLPRPRPRPESTPRP | -0.0383 |
| RRIRQRPPRLPRPRPRPYNMPRP | -0.316 |
| RRIRGRPPRLPRPRPRPMVCPRP | 0.55 |
| RRIRVRPPRLPRPRPRPHKSPRP | 0.0325 |
| RRIRHRPPRLPRPRPRPGCAPRP | 0.124 |

| Sequence | shrunken log2 fold change |
| --- | --- |
| RRIRMRPPRLPRPRPRPMYHPRP | -0.0178 |
| RRIRGRPPRLPRPRPRPWIIPRP | -0.121 |
| RRIRGRPPRLPRPRPRPTFVPRP | 0.782 |
| RRIRQRPPRLPRPRPRPHFNPRP | -0.324 |
| RRIRPRPPRLPRPRPRPEKQPRP | -0.0353 |
| RRIRDRPPRLPRPRPRPTPHPRP | 0.175 |
| RRIRHRPPRLPRPRPRPMTCPRP | -0.137 |
| RRIRHRPPRLPRPRPRPDDQPRP | -0.0481 |
| RRIRGRPPRLPRPRPRPEWKPRP | 1.3 |
| RRIRVRPPRLPRPRPRPHTMPRP | -0.252 |
| RRIRKRPPRLPRPRPRPKYVPRP | 0.0381 |
| RRIRNRPPRLPRPRPRPSTGPRP | -0.266 |
| RRIRFRPPRLPRPRPRPPICPRP | 0.172 |
| RRIRRRPPRLPRPRPRPYDLPRP | -0.546 |
| RRIRVRPPRLPRPRPRPSSHPRP | -0.344 |
| RRIRCRPPRLPRPRPRPRQYPRP | -0.15 |
| RRIRWRPPRLPRPRPRPTVEPRP | 0.0565 |
| RRIRVRPPRLPRPRPRPVSPPRP | -0.146 |
| RRIRHRPPRLPRPRPRPPGWPRP | 0.424 |
| RRIRMRPPRLPRPRPRPKLYPRP | 0.256 |
| RRIRKRPPRLPRPRPRPCHFPRP | -0.0404 |
| RRIRSRPPRLPRPRPRPRRWPRP | 0.556 |
| RRIRPRPPRLPRPRPRPRWIPRP | 0.157 |
| RRIRWRPPRLPRPRPRPVCWPRP | 0.758 |
| RRIRGRPPRLPRPRPRPCRVPRP | -0.0297 |
